How the values were obtained:
brox_human BROX [1] = target: brox_human BROX (UniProt Q5VW32)
brox_human BROX [2] = target: brox_human BROX (UniProt Q5VW32); remark: listed apart in the source

Sequence of brox_human BROX (Q5VW32 whole entry): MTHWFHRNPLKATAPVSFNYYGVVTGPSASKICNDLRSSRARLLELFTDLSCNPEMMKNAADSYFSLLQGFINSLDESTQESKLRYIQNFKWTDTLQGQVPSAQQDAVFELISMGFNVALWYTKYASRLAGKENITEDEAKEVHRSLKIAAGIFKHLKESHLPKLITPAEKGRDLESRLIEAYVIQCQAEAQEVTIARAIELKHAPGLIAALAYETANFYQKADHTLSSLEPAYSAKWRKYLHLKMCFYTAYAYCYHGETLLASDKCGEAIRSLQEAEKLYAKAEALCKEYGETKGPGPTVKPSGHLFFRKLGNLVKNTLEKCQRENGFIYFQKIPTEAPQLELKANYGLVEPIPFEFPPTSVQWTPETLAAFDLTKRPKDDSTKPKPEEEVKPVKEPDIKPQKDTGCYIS
Sequence of Charged multivesicular body protein 5 (Homo sapiens), Q9NZZ3-1 F211A (Q9NZZ3 whole entry F211A): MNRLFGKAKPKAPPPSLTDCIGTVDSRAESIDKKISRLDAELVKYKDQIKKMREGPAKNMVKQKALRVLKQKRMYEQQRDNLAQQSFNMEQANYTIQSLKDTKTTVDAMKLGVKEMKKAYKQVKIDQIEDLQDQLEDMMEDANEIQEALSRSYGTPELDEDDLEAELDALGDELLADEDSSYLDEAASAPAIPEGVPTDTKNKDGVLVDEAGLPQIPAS
Sequence of Charged multivesicular body protein 5 (Homo sapiens), Q9NZZ3-1 P214G (Q9NZZ3 whole entry P214G): as the sequence (Q9NZZ3 whole entry F211A) above, with A211F, P214G counted along it
Sequence of Charged multivesicular body protein 5 (Homo sapiens), Q9NZZ3-1 L213A (Q9NZZ3 whole entry L213A): as the sequence (Q9NZZ3 whole entry F211A) above, with A211F, L213A counted along it

Substance | effect of a mutation on the interaction (brox_human BROX [1]) | effect of a mutation on the interaction (brox_human BROX [2])
Charged multivesicular body protein 5 (Homo sapiens), Q9NZZ3-1 F211A | decreasing interaction strength | disrupting interaction strength
Charged multivesicular body protein 5 (Homo sapiens), Q9NZZ3-1 L213A | disrupting interaction strength | 
Charged multivesicular body protein 5 (Homo sapiens), Q9NZZ3-1 P214G | decreasing interaction strength | disrupting interaction strength
